Test results from the nanobody polyreactivity screen of Harvey et al. (2022).

experiment: yeast display, Sf9 membrane polyspecificity reagent, FACS + sequencing; frameworks hold sequencing errors
Method in brief: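 Galactose induction of a Saccharomyces cerevisiae BJ5465 synthetic nanobody display library ran 36–48 hours. The cells were then stained for 1 hour at 4 °C with 10% biotinylated, detergent-solubilized Sf9 membrane reagent, pulled down on streptavidin microbeads and FACS-sorted into low and high (top ~1%) gates on expression and reagent-binding fluorescence. Labels for polyreactivity follow the gate of origin.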

Sequence	polyreactivity (PSR sort gate)
QVQLVESGGGLVQAGGSLRLSCAASGRTFAWYTMGWYRQAPGKERELVAAISGSGGSTYYADSVKGRFTISRDNAKNTVYLQRKSLKPEDTAVYYCARRVHSYYGHTRYYYWGQGTQVTVSS	high polyreactivity
QFQLVESGGGLVQAGGSLRLSCAASGRIFDTYVMRWYRQAPGKERDLVAAISGSGGSTYYAYSVKGRFTISRDNAKNTVYLQMNSLKPEDTEVYYCAAARRYYAYRYDYWGQGTQVTVSS	high polyreactivity
QVQLVESGGGLVQAGGSLRLSCAASGRIFGYYAMGWYRQAPGKERELVAAISSNGGSTYYADSVKGRFTISRDNAKNTVYLQMNSLKPEDTAVYYCKVYFYSRHYFYRGDYWGQGTQVTVSS	high polyreactivity
QVQLVESGGGLVQAGGSLRLSCASSGFIFGRNAMGWYRQAPGKERELVAGISSRGGRTYYADSVKGRFTISRDNAKITVYLEMNSLKPEDTAEYYCAAAGLTDYVRYDYWGQGTQVTVSS	high polyreactivity
QVQLVESGGCLVQAGGSLRLSCAASGGIFGKYAMGWYRQAPGKESELVAAITWNGVSTYYADSVKGRFTISRDNAKNTVYLQMNSLKPEDTAVYYCAKASLPYRPDSTPDRRYDYWGQGTQVTVSS	high polyreactivity
QVQLVESGGGLVQAGGSLRLSCAASGRTFTIYAMGWYRQAPGKERELVAAISWSDGSTYYADSVKGRFTISRDNAKNTVYLQMNSLKPEDTAVYSCAREVYGDASAPDMDYWGQGTQVTVSS	low polyreactivity
QVQLVESGGGLVQAGGSLRLSCAASGSIFSVYVMGWYRQAPGKERELVAAISWSDSDTYYADSVKGRFTISRDNAKNTVYLQMNSLKPEDTAVYYCAAETFDYADYIANGSGEYDYWGQGTQVTVSS	high polyreactivity
QVQLVESGGGLVQAGGSLRLSCAASGLTIVGNAMGWYRQAPGKERELVASISSRGGSTYYADSVKGRFTISLDNSKNTVYLQMNSLNPEDTAVYYCAAGNSYGVRLLYQIVTRYYWGQGTQVTVSS	high polyreactivity
QVQLVESGGGLVQAGGSLRLSCDASGSTFYPYVMGWYRQAPGKERELVARITWSGGSTYYADSVKGRFTISRDNAKNTVYLQMNSLKPEDTAVYYCAALRYVNLLAQAYEYWGQGTQVTVSS	high polyreactivity
QVQLVESGGGLVQAGGSLRLSCAASGIIFRRYAMGWYRQGPGKERELVAAITHRGSTYYADSVKGRFTISRDNAKNTVYLQMNSLKPEDTAVYYCAADGFTRWGRYDYWGQGTQVTVSS	high polyreactivity
QVQLVESGGDLVQAGGSLRLSCAASGITFVYNAMGWYRQAPGKERELVAGITWSGSSTYYADSVKGRFTISRDNAKNTVYLQMNSLKPEDTAVYYCAAYLYDRTTRYTYYYWGQGTQVTVSS	high polyreactivity
QVQLVESGGGLGQAGGSLRLSCAASGFTFGNYAMGWYRQAPGKERELVAVISYSTGSTNYADSVKGRFTISRDNAKNTVYLQMNSLKPEDTAVYYCAKRYRSYYQGYGYWGQGTQVTVSS	high polyreactivity
QVQLVESGGGLVQAGGSLRLSCAASGLIFFFYAMGWYRQAPGKERELVASISGGGITYYADSVKGRFTISRDNAKNTVYLQMNSLKPEDTAVYYCAARVLDWRGDIHDSEYWGQGTQVTVSS	low polyreactivity
QVQLVESGGGLVQAGGSLRLSCAASGSTFVKYAMGWYRQAPGKERELVAVISSAGSTNYADSVKGRFTISRDNAKNTVYLQMNSLKPEDTAVYYCNAEPTTPYWDYWAYEDDYWGQGTQVTVSS	low polyreactivity
QVQLVESGGGLFQAGGSLRLSCAASGIIFYYNTMGWYRQAPGKDRELVAAISQRGRSTYYADSVKGRFTISRDNAKNTVYFHLNSLKPEDTAVFYCNKLRNSHGFRYDYWGQGTQVTVSS	high polyreactivity
QVQLVESGGGLVQAGGSLRLSCAASGRTFNSHVMRWYRQAPGKERELVAAISSRGGGTYYADSVKGRFTISRDNAKNTVYLQMNSLNPEDTAVYYCITVVSRSYRDGPPDPYDSWGQGTQVTVSS	high polyreactivity
QVQLVQSGGGLVQAGGSLRLSCAASGSTFSTYAMGWYRQAPGKERELVAAISRYGGLTNYADSVKGRFTISRDNAKNTVYLQMNSLKPEDTAVYYCAARRYDTGNGYDYWGQGTQVTVSS	high polyreactivity
QVQLVESGGGLVQAGGSLRLRCAASGSTFYWNAMGWYRQAPGKERELVATITYSGGSTYYADSVKGRFTISRDNAKNTVYLQMNSLKPEDTAVYYCATGGLTWHYTYRGYYWGQGTQVTVSS	low polyreactivity
QVQLVESVGGLVQAGGSLRLSCAASVYAMGWYRPAPGKERELVAAITDSGSTNYADSVKGRFTISRDNAKNTVYLQMNSLKPEDNAVYYCNADPYYATGSWARLPLYQYDYWGPGTQVTVSS	low polyreactivity
QVQLVESGGGLVQAGGSLRLSCAASGSIFRPYAMGWYRQAPGKERELVAAISVRGGRSYYADSVKGRFTISRDNAKNTVYLQMNSLKPEDTAVYYCNTVRQLGYTGYDYWGQGTQVTVSS	high polyreactivity
QVQLEESGGGLVQAGGSLRLSCAASGRIFTYYGMGWYRQAPGKERELVAAITRSGGSTRYADSVKGRFTISRDNAKNTVYLQMNSLKPEDTAVYFCAKTHYGVQRLDSCGQGTQVTVSS	low polyreactivity
QVQLVESGGGLVQAGGSLRLSCAASGRIFNTYAMGWYRQAPGKERELVAAITSSGGSTYYADSVKGRFTISRDNAKNTVYFQMNSLKPEDTAVYYCNAGSLHRRYYYEGDYWGQGTQVTVSS	high polyreactivity
QVQLVESGGGLVQAGGSLRLSCAASGRISLHNTIGWYRQAPGKERELVAAINYSGGSTYYADTVKGRFTISRDNAKNTVYLQMNSLKPEDTEVYYCAADFYQSHFYRPRYDYWGQGTQVTVSS	low polyreactivity
QVQLVESGGGLVQAGGSLRLSCAASGFTFYRYAMGWYRQAPGKERELVAAISWSGASTYYADSVKGRFTISRDNAKNTVYLQMNSLKPEDTPVYYCNAYDTYLGGFDYWGQGTQVTVSS	high polyreactivity
QVQLVESGGGLVQEGGSLRLSCAASGFTFDDYAMGWYRQAPGKERELVATITNSDSSTYYADSVKGRFTISRDNEKNTFYLQMNSLQPVDTAVYYCAADGRYAYGYNHWGHGTQVTVSS	low polyreactivity
QVQLVESGGGLVQAGGRLRLTCAASGRIFVIYAMRWYRQAPGKERELVAGITRGDRTYADSVKARFTISRDNAKNTVYLQMNSLKPEDTAVYYCNADTGYRFDYWGQGTQVTVSS	high polyreactivity
QVQLVESGGGLVQAGGSLRLSSAASGFIFYQYAMGWYRQAPGKERELVAAISKSGGNTYYADSVKGRFTISRDNAKNTVYLQMNSLKPEDSAVYYCAADRGQRGMYYWGQGTQVSVSS	high polyreactivity
QVQLVESGGGLVQAGGSLRLSCAASGSTFWTNAMGWFRHAPGKVRELVATISKTTGRTNYADSEKGRFTISRDNAKNTVYLQMNSLKPEDTAVYYCAAEPYSWDTWVDYDYWGIGTQVTVSS	low polyreactivity
QVQRVESGGGLVQAGGSLRLSCAGTGSIFTSNAMRWYRQARGNERELVASISYISGGTYYADSVKGRFTISRDNAKNTVYLQMNSLKPEDTAVYYCAAEQTWGSCQYDPRTYDYWGQGNQVTVSS	low polyreactivity
QGQLVESGGGLVQAGGSLRLSCAASGLTFKYYTMGWYRQAPGKEMELVAAINWSGASTYADSVKGRFTISRDNAKNTVYLQMNSLKPEDTAVYYCAADSPSWAPVREYDFWGQGTQVTVSS	low polyreactivity
